Starred links: 1 amine or outer side, 2 acyl side, 3 side chain; linkers in the order of their positions; H or OH if unused. Positions of bridges follow the written chain, without caps; N, C: chain ends. Non-standard residues stand in square brackets, D forms with d. Residues, ends and D or L forms follow the SMILES beside them. *: point of attachment. FITC = O=C1OC2(c3ccc(O)cc3Oc3cc(O)ccc32)c2ccc(NC(=S)*)cc21; X2 = CC(C)C[C@](CCCC=[*:3])(N[*:1])C(=O)[*:2]; X6 = NCCCC[C@](CCCC=[*:3])(N[*:1])C(=O)[*:2]; X1 = CSCC[C@](CCCC=[*:3])(N[*:1])C(=O)[*:2]; X3 = O=C([C@@](CO)(CCCC=[*:3])N[*:1])[*:2]; X5 = C=CCCC[C@@](CC(C)C)(N[*:1])C(=O)[*:2]; X4 = C=CCCC[C@@](CCSC)(N[*:1])C(=O)[*:2]; R5 = C=CCCC[C@@](C)(N)C(=O)O; S5 = C=CCCC[C@](C)(N)C(=O)O; βAla = NCCC(=O)O
Legend:
[1] = tested on: Wnt/β-catenin dependent transcriptional activity; test: Topflash-luciferase reporter, Wnt3a-induced expression; type: cell-based; settings: Wnt3a conditioned medium, peptide 40 μM, 12 h; for Wnt3a-induced Topflash reporter expression, comparison in words: HEK293T cells transfected with Topflash-luciferase
Excerpt: We next explored the effects of these peptides on Wnt/β-catenin dependent transcriptional activity. The Topflash reporter, in which firefly luciferase is transcriptionally activated by β-catenin, was employed. […] Con = non-specific control. […] Scale bar: 50 μm.

[2] = Circular dichroism (CD) analysis, percent helicity from [θ]222; type: physicochemical; settings: peptide 50 μM in phosphate buffer (10 mM, pH 7.4), 25 °C, 1 mm cuvette, calculated from [θ]222
Experimental: (§1) Con = non-specific control. […] Scale bar: 50 μm.
(§2) The CD spectra were obtained with
(§3) The measurement parameters
(§4) background subtraction. The curves were smoothed using standard parameters. In addition,
(§5) Figure S3. CD spectra of all peptides.
(§6) concentration of 50 μM. The percent helicity was calculated based on the [θ] 222 value.

[3] = circular dichroism; settings: 10 mM phosphate buffer (captions say PBS); pH 7.4; 25 °C; 50 uM
[4] = molecular target: α-chymotrypsin (Bos taurus, UniProt P00766); test: Proteolytic stability towards α-chymotrypsin; settings: α-chymotrypsin 5 ng μL^–1 (supplement: 0.5 ng/µL) in 50 mM PBS pH 7.4 with 2 mM CaCl2, peptide 0.1 mM final, room temperature, 1 h, analytical HPLC, duplicate independent experiments
[5] = tested on: HEK 293T/17 cells; test: Cell permeability of FITC-labelled peptides by confocal microscopy; type: cell-based; settings: FITC–β-Ala–peptide 40 μM (supplement: 10 µM), 16 h, washed with PBS twice, fixed, confocal fluorescence microscopy
Excerpt: as §1
We then assessed the cell permeability of the peptides by conjugating fluorescein isothiocyanate (FITC) to Axin (469–482), WNT-3a and WNT-3c (Fig. 3d). […] To explore the detailed binding mode of WNT-3a against β-catenin, we conducted a Z-dock of the WNT-3a–β-catenin complex to predict structural models of the protein–protein complexes.[27] […] Owing to an introduction of the stapling group, Met-481 is closer to the Trp-338 of β-catenin, and thus forms a stronger interaction with that residue. In addition, a stronger salt bridge between the side chain carboxyl group of Asp-474 coordinated with the amino group of β-catenin Lys-292 and a more efficient hydrogen bond between the side chain of His-476 and β-catenin Asp-299 are constructed because of a closer distance geometrically. It is conceivable that these changes enhanced the conformational stability of WNT-3a in its bound state, thereby contributing to the improved binding activity.
as §2, §3, §4, §5, §6

[6] = in vitro; settings: isolated enzyme chymotrypsin, pH 7.4

Row | Compound | helicity [3] [%] | further results
1 | CC[C@H](C)[C@H](NC(=O)[C@H](CO)NC(=O)[C@H](CCC(=O)O)NC(=O)[C@@H]1CCCN1C(C)=O)C(=O)N[C@@H](CC(C)C)C(=O)N[C@@H](CC(=O)O)C(=O)N[C@@H](CCC(=O)O)C(=O)N[C@@H](Cc1c[nH]cn1)C(=O)N[C@H](C(=O)N[C@@H](CCC(N)=O)C(=O)N[C@@]1(C)CCCC=CCCC[C@](CCCCN)(C(N)=O)NC(=O)[C@H](CCSC)NC(=O)[C@H](C(C)C)NC1=O)C(C)C [WNT-8a] (Ac-PESILDEHVQ[S5]VM[X6]-NH2; staple 11-14) |  | Wnt3a-induced Topflash reporter expression, comparison in words [1]: enhanced the Wnt3a-induced reporter expression more effectively than Axin (469–482)
2 | CC[C@H](C)[C@H](NC(=O)[C@H](CO)NC(=O)[C@H](CCC(=O)O)NC(=O)[C@@H]1CCCN1C(C)=O)C(=O)N[C@]1(CC(C)C)CCCC=CCCC[C@@](C)(C(=O)N[C@H](C(=O)N[C@@H](CCC(N)=O)C(=O)N[C@@H](CCCNC(=N)N)C(=O)N[C@H](C(=O)N[C@@H](CCSC)C(=O)N[C@@H](CCCCN)C(N)=O)C(C)C)C(C)C)NC(=O)[C@H](CCC(=O)O)NC(=O)[C@H](CC(=O)O)NC1=O [WNT-6a] (Ac-PESI[X2]DE[S5]VQRVMK-NH2; staple 5-8) | 70.9 | Wnt3a-induced Topflash reporter expression, comparison in words [1]: enhanced the Wnt3a-induced reporter expression more effectively than Axin (469–482); fold enhancement of Wnt3a-induced reporter expression ([1]; HEK293T cells, Topflash-luciferase, compared with Axin (469–482)): three-fold enhancement; α-Helicity [2]: 70.87%
3 | CC[C@H](C)[C@H](NC(=O)[C@H](CO)NC(=O)[C@H](CCC(=O)O)NC(=O)[C@@H]1CCCN1C(C)=O)C(=O)N[C@@H](CC(C)C)C(=O)N[C@@H](CC(=O)O)C(=O)N[C@@H](CCC(=O)O)C(=O)N[C@@H](Cc1c[nH]cn1)C(=O)N[C@]1(C)CCCC=CCCC[C@](CCSC)(C(=O)N[C@@H](CCCCN)C(N)=O)NC(=O)[C@H](C(C)C)NC(=O)[C@H](CCCNC(=N)N)NC(=O)[C@H](CCC(N)=O)NC1=O [WNT-3a] (Ac-PESILDEH[R5]QRV[X1]K-NH2; staple 9-13) | 42.3 | degradation by α-chymotrypsin [4]: completely stable and no degradation was observed even after 1 h
4 | C=CCCC[C@@](CCSC)(NC(=O)[C@@H](NC(=O)[C@H](CCCNC(=N)N)NC(=O)[C@](C)(CCCC=C)NC(=O)[C@@H](NC(=O)[C@H](Cc1c[nH]cn1)NC(=O)[C@H](CCC(=O)O)NC(=O)[C@H](CC(=O)O)NC(=O)[C@H](CC(C)C)NC(=O)[C@@H](NC(=O)[C@H](CO)NC(=O)[C@H](CCC(=O)O)NC(=O)[C@@H]1CCCN1C(C)=O)[C@@H](C)CC)C(C)C)C(C)C)C(=O)N[C@@H](CCCCN)C(N)=O (Ac-PESILDEHV[S5]RV[X4]K-NH2) | 49.9 | 
5 | CC[C@H](C)[C@@H]1NC(=O)[C@](C)(NC(=O)[C@H](CCC(=O)O)NC(=O)[C@@H]2CCCN2C(C)=O)CCCC=CCCC[C@@](C)(C(=O)N[C@@H](CCC(=O)O)C(=O)N[C@@H](Cc2c[nH]cn2)C(=O)N[C@H](C(=O)N[C@@H](CCC(N)=O)C(=O)N[C@@H](CCCNC(=N)N)C(=O)N[C@H](C(=O)N[C@@H](CCSC)C(=O)N[C@@H](CCCCN)C(N)=O)C(C)C)C(C)C)NC(=O)[C@H](CC(C)C)NC1=O (Ac-PE[R5]IL[S5]EHVQRVMK-NH2; staple 3-6) | 40 | 
6 | CC[C@H](C)[C@H](NC(=O)[C@H](CO)NC(=O)[C@H](CCC(=O)O)NC(=O)[C@@H]1CCCN1C(C)=O)C(=O)N[C@]1(C)CCCC=CCCC[C@@](C)(C(=O)N[C@H](C(=O)N[C@@H](CCC(N)=O)C(=O)N[C@@H](CCCNC(=N)N)C(=O)N[C@H](C(=O)N[C@@H](CCSC)C(=O)N[C@@H](CCCCN)C(N)=O)C(C)C)C(C)C)NC(=O)[C@H](CCC(=O)O)NC(=O)[C@H](CC(=O)O)NC1=O (Ac-PESI[R5]DE[S5]VQRVMK-NH2; staple 5-8) | 36.8 | 
7 | CC[C@H](C)[C@@H]1NC(=O)[C@](CO)(NC(=O)[C@H](CCC(=O)O)NC(=O)[C@@H]2CCCN2C(C)=O)CCCC=CCCC[C@@](C)(C(=O)N[C@@H](CCC(=O)O)C(=O)N[C@@H](Cc2c[nH]cn2)C(=O)N[C@H](C(=O)N[C@@H](CCC(N)=O)C(=O)N[C@@H](CCCNC(=N)N)C(=O)N[C@H](C(=O)N[C@@H](CCSC)C(=O)N[C@@H](CCCCN)C(N)=O)C(C)C)C(C)C)NC(=O)[C@H](CC(C)C)NC1=O (Ac-PE[X3]IL[S5]EHVQRVMK-NH2; staple 3-6) | 51.3 | 
8 | CC[C@H](C)[C@H](NC(=O)[C@H](CO)NC(=O)[C@H](CCC(=O)O)NC(=O)[C@@H]1CCCN1C(=O)CCNC(=S)Nc1ccc2c(c1)C(=O)OC21c2ccc(O)cc2Oc2cc(O)ccc21)C(=O)N[C@@H](CC(C)C)C(=O)N[C@@H](CC(=O)O)C(=O)N[C@@H](CCC(=O)O)C(=O)N[C@@H](Cc1c[nH]cn1)C(=O)N[C@H](C(=O)N[C@@H](CCC(N)=O)C(=O)N[C@@H](CCCNC(=N)N)C(=O)N[C@H](C(=O)N[C@@H](CCSC)C(=O)N[C@@H](CCCCN)C(N)=O)C(C)C)C(C)C [FITC–β-Ala–Axin (469–482)] ({FITC-βAla}-PESILDEHVQRVMK-NH2) |  | cell permeability [5]: also penetrated the cell membrane
9 | CC[C@H](C)[C@H](NC(=O)[C@H](CO)NC(=O)[C@H](CCC(=O)O)NC(=O)[C@@H]1CCCN1C(C)=O)C(=O)N[C@@H](CC(C)C)C(=O)N[C@@H](CC(=O)O)C(=O)N[C@@H](CCC(=O)O)C(=O)N[C@@H](Cc1c[nH]cn1)C(=O)N[C@]1(C)CCCC=CCCC[C@](C)(C(=O)N[C@@H](CCCCN)C(N)=O)NC(=O)[C@H](C(C)C)NC(=O)[C@H](CCCNC(=N)N)NC(=O)[C@H](CCC(N)=O)NC1=O (Ac-PESILDEH[R5]QRV[R5]K-NH2; staple 9-13) | 35.4 | 
10 | CC[C@H](C)[C@@H]1NC(=O)[C@](CO)(NC(=O)[C@H](CCC(=O)O)NC(=O)[C@@H]2CCCN2C(C)=O)CCCC=CCCC[C@](C)(C(=O)N[C@@H](Cc2c[nH]cn2)C(=O)N[C@H](C(=O)N[C@@H](CCC(N)=O)C(=O)N[C@@H](CCCNC(=N)N)C(=O)N[C@H](C(=O)N[C@@H](CCSC)C(=O)N[C@@H](CCCCN)C(N)=O)C(C)C)C(C)C)NC(=O)[C@H](CC(=O)O)NC(=O)[C@H](CC(C)C)NC1=O (Ac-PE[X3]ILD[R5]HVQRVMK-NH2; staple 3-7) | 24.8 | 
11 | Ac-PESILDEHVQRVMK-NH2 [Axin (469–482)] | 19.6 | half-life at 0.1 mM [6]: 9 min
12 | CC[C@H](C)[C@H](NC(=O)[C@H](CO)NC(=O)[C@H](CCC(=O)O)NC(=O)[C@@H]1CCCN1C(C)=O)C(=O)N[C@@H](CC(C)C)C(=O)N[C@@H](CC(=O)O)C(=O)N[C@@H](CCC(=O)O)C(=O)N[C@@H](Cc1c[nH]cn1)C(=O)N[C@@]1(C)CCCC=CCCC[C@@](C)(C(=O)N[C@@H](CCCCN)C(N)=O)NC(=O)[C@H](C(C)C)NC(=O)[C@H](CCCNC(=N)N)NC(=O)[C@H](CCC(N)=O)NC1=O (Ac-PESILDEH[S5]QRV[S5]K-NH2; staple 9-13) | 64.7 | 
13 | C=CCCC[C@@](CC(C)C)(NC(=O)[C@@H](NC(=O)[C@H](CO)NC(=O)[C@H](CCC(=O)O)NC(=O)[C@@H]1CCCN1C(C)=O)[C@@H](C)CC)C(=O)N[C@@H](CC(=O)O)C(=O)N[C@@H](CCC(=O)O)C(=O)N[C@@H](Cc1c[nH]cn1)C(=O)N[C@](C)(CCCC=C)C(=O)N[C@@H](CCC(N)=O)C(=O)N[C@@H](CCCNC(=N)N)C(=O)N[C@H](C(=O)N[C@@H](CCSC)C(=O)N[C@@H](CCCCN)C(N)=O)C(C)C (Ac-PESI[X5]DEH[R5]QRVMK-NH2) | 21.6 | 

From publication PMC5672839, “A novel peptide stapling strategy enables the retention of ring-closing amino acid side chains for the Wnt/β-catenin signalling pathway” (Chemical Science, 2017)
